Bridge positions count the residues as written; N and C are the ends. Square brackets hold non-standard residues; d marks the D form. Ends that are not written are not given here. Hyp = O=C(O)[C@@H]1C[C@@H](O)CN1; Cit = NC(=O)NCCC[C@H](N)C(=O)O
B1: SEQ ID NO: 265 (peptide)
peptide: KCNTATCTVQ[Cit]LAHQIYQFDKDKDNVAPPTNVGSNG[Hyp]-NH2
modifications: disulfide 2-7 (inferred); ends not checked
B2: SEQ ID NO: 27 (peptide)
peptide: KCNTATCTVQRLAHQIYQFTDKDKDNAAPPTNVGSNG[Hyp]-NH2
modifications: disulfide 2-7 (inferred); ends not checked
B3: SEQ ID NO: 266 (peptide)
peptide: KCNTATCTVQ[Cit]LAEQIYQFTDKDKDNVSPPTNVGSNG[Hyp]-NH2
modifications: disulfide 2-7 (inferred); ends not checked
B4: SEQ ID NO: 267 (peptide)
peptide: GCRFGTCTVQ[Cit]LAHQIYQFTDKDKDNVAPRTNVGPQG[Hyp]-NH2
modifications: disulfide 2-7 (inferred); ends not checked
B5: SEQ ID NO: 268 (peptide)
peptide: KCNTATCTVQ[Cit]LAHQIYQFTDKDKDNVAPPTNVGSNG[Hyp]-NH2
modifications: disulfide 2-7 (inferred); ends not checked
B6: SEQ ID NO: 269 (peptide)
peptide: GCRTGTCTVQ[Cit]LAHQIYQFTDKDKDNVAPRTNVGPNGY-NH2
modifications: disulfide 2-7 (inferred); ends not checked
B7: SEQ ID NO: 270 (peptide)
peptide: GCRFGTCTVQ[Cit]LAHQIYQFTDKDKDNVAPRTNVGPNG[Hyp]-NH2
modifications: disulfide 2-7 (inferred); ends not checked
B8: SEQ ID NO: 271 (peptide)
peptide: GCRFGTCTVQ[Cit]LAHQIYQFTDKDKDNVAPRTNVSPNGY-NH2
modifications: disulfide 2-7 (inferred); ends not checked
B9: SEQ ID NO: 272 (peptide)
peptide: KCNTATCTVQ[Cit]LAHQIYQFTDKDKDNVAPRTEVGSNGY-NH2
modifications: disulfide 2-7 (inferred); ends not checked
B10: SEQ ID NO: 273 (peptide)
peptide: GCRTGTCTVQ[Cit]LAHQIYQFTDKDKDNVAPRTNVGPQGY-NH2
modifications: disulfide 2-7 (inferred); ends not checked
B11: SEQ ID NO: 274 (peptide)
peptide: GCRFGTCTVQ[Cit]LAHQIYQFTDKDKDNVAPRTKIGPQG[Hyp]-NH2
modifications: disulfide 2-7 (inferred); ends not checked
B12: SEQ ID NO: 275 (peptide)
peptide: GCRFGTCTVQ[Cit]LAHQIYQFTDKDKDNVAPRTKISPNG[Hyp]-NH2
modifications: disulfide 2-7 (inferred); ends not checked
B13: SEQ ID NO: 28 (peptide)
peptide: KCNTATCTVQRLAHQIYQFTDKDKDNVAPATNVGSNG[Hyp]-NH2
modifications: disulfide 2-7 (inferred); ends not checked
B14: SEQ ID NO: 276 (peptide)
peptide: KCNTATCTVQ[Cit]LAHQIYQATDKDKDNVAPPTNVGSNG[Hyp]-NH2
modifications: disulfide 2-7 (inferred); ends not checked
B15: SEQ ID NO: 277 (peptide)
peptide: GCRTGTCTVQ[Cit]LAHQIYQFTDKDKDNVAPRTKIGPNG[Hyp]-NH2
modifications: disulfide 2-7 (inferred); ends not checked
B16: SEQ ID NO: 278 (peptide)
peptide: GCRFGTCTVQ[Cit]LAHQIYQFTDKDKDNVAPRTNVSPQGY-NH2
modifications: disulfide 2-7 (inferred); ends not checked
B17: SEQ ID NO: 279 (peptide)
peptide: GCRFGTCTVQ[Cit]LAHFLYQFTDKDKDNVAPRTKVGSNGY-NH2
modifications: disulfide 2-7 (inferred); ends not checked
B18: SEQ ID NO: 280 (peptide)
peptide: GCRTGTCTVQ[Cit]LAHQIYQFTDKDKDNVAPRTNIGPQG[Hyp]-NH2
modifications: disulfide 2-7 (inferred); ends not checked
B19: SEQ ID NO: 281 (peptide)
peptide: GCRTGTCTVQ[Cit]LAHQIYQFTDKDKDNVAPRSNVGPQG[Hyp]-NH2
modifications: disulfide 2-7 (inferred); ends not checked
B20: SEQ ID NO: 282 (peptide)
peptide: GCRFGTCTVQ[Cit]LAHFLYQFTDKDGAIAPRTKIGSQGY-NH2
modifications: disulfide 2-7 (inferred); ends not checked
B21: SEQ ID NO: 283 (peptide)
peptide: GCRFGTCTVQ[Cit]LAHQIYQFTDKDKDNVAPRTNVSPQG[Hyp]-NH2
modifications: disulfide 2-7 (inferred); ends not checked
B22: SEQ ID NO: 284 (peptide)
peptide: GCRFGTCTVQ[Cit]LAHQIYQFTDKDKDNVAPRSKIGPQG[Hyp]-NH2
modifications: disulfide 2-7 (inferred); ends not checked
B23: SEQ ID NO: 285 (peptide)
peptide: GCRTGTCTVQ[Cit]LAHQIYQFTDKDKDNVAPRSKVGPQGY-NH2
modifications: disulfide 2-7 (inferred); ends not checked
B24: SEQ ID NO: 29 (peptide)
peptide: KCNTATCTVQRLAHQIYQFTKDKDNVAPPTNVGSNG[Hyp]-NH2
modifications: disulfide 2-7 (inferred); not fully specified; ends not checked
B25: SEQ ID NO: 286 (peptide)
peptide: GCRFGTCTVQ[Cit]LAHQIYQFTDKDKDNVAPRSNVSPQGY-NH2
modifications: disulfide 2-7 (inferred); ends not checked
B26: SEQ ID NO: 287 (peptide)
peptide: GCRFGTCTVQ[Cit]LAHQIYQFTDKDKDNVAPRTKVSPQG[Hyp]-NH2
modifications: disulfide 2-7 (inferred); ends not checked
B27: SEQ ID NO: 288 (peptide)
peptide: GCRFGTCTVQ[Cit]LAHQIYQFTDKDKDNVAPRTKVSPNG[Hyp]-NH2
modifications: disulfide 2-7 (inferred); ends not checked
B28: SEQ ID NO: 289 (peptide)
peptide: GCRFGTCTVQ[Cit]LAHQIYQFTDKDKDNVAPRSNVGPQG[Hyp]-NH2
modifications: disulfide 2-7 (inferred); ends not checked
B29: SEQ ID NO: 290 (peptide)
peptide: GCRTGTCTVQ[Cit]LAHQIYQFTDKDKDNVAPRSKVGPNG[Hyp]-NH2
modifications: disulfide 2-7 (inferred); ends not checked
B30: SEQ ID NO: 291 (peptide)
peptide: GCRFGTCTVQ[Cit]LAHQIYQFTDKDKDNVAPRTNISPQG[Hyp]-NH2
modifications: disulfide 2-7 (inferred); ends not checked
B31: SEQ ID NO: 292 (peptide)
peptide: GCRTGTCTVQ[Cit]LAHQIYQFTDKDKDNVAPRTKVGPQG[Hyp]-NH2
modifications: disulfide 2-7 (inferred); ends not checked
B32: SEQ ID NO: 293 (peptide)
peptide: GCRFGTCTVQ[Cit]LAHQIYQFTDKDKDNVAPRSNVSPQG[Hyp]-NH2
modifications: disulfide 2-7 (inferred); ends not checked

Columns and labels:
hAMY3R = target: T1, hAMY3R (human, UniProt P30988); assay: cell-based or functional assay
T1 sequence 1: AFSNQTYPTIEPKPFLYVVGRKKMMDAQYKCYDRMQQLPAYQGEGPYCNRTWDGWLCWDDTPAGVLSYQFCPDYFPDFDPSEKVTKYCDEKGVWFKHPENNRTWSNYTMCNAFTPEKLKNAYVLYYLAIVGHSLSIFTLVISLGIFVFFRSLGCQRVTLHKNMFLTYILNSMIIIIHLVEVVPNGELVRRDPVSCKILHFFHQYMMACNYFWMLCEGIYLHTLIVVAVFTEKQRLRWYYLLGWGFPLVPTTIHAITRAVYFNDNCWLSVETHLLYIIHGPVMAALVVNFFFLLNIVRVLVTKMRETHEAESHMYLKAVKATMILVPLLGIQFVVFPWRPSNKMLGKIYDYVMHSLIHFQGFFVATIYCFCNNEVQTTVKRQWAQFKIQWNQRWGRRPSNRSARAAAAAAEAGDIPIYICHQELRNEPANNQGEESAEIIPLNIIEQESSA
T1 sequence 2: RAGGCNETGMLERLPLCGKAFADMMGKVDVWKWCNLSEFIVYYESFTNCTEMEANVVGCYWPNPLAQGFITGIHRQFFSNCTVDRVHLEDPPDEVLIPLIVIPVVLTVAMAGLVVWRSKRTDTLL

hAM1R = hAM1R (human, UniProt Q16602); assay: cell-based or functional assay

| hAMY3R EC50 (cAMP) (hAMY3R) [nM] | hAM1R EC50 (cAMP) (hAM1R) [nM] | Binder |
| --- | --- | --- |
| 0.03 | > 5000 | B1 |
| 0.008 | > 5000 | B2 |
| 0.053 | > 5000 | B3 |
| 0.007 | 2490 | B4 |
| 0.014 | > 5000 | B5 |
| 0.005 | > 5000 | B6 |
| 0.003 | 1880 | B7 |
| 0.01 | 96.6 | B8 |
| 0.009 | > 5000 | B9 |
| 0.021 | > 5000 | B10 |
| 0.019 | 877 | B11 |
| 0.02 | > 5000 | B12 |
| 0.008 | > 5000 | B13 |
| 0.056 | > 5000 | B14 |
| 0.058 | > 5000 | B15 |
| 0.011 | 155 | B16 |

| hAMY3R EC50 (cAMP) (hAMY3R) [nM] | hAM1R EC50 (cAMP) (hAM1R) [nM] | Binder |
| --- | --- | --- |
| 0.013 | 241 | B17 |
| 0.024 | > 5000 | B18 |
| 0.034 | > 5000 | B19 |
| 0.143 | 3880 | B20 |
| 0.035 | > 5000 | B21 |
| 0.028 | 591 | B22 |
| 0.157 | > 5000 | B23 |
| 0.008 | > 5000 | B24 |
| 0.025 | 139 | B25 |
| 0.055 | > 5000 | B26 |
| 0.03 | > 5000 | B27 |
| 0.005 | 3500 | B28 |
| 0.047 | > 5000 | B29 |
| 0.064 | > 5000 | B30 |
| 0.07 | > 5000 | B31 |
| 0.063 | > 5000 | B32 |

Source: patent publication US12139520B2 (priority 2020, dated 2024)
